Assay results: patent publication US20250320304A1 (Janssen / Centocor, published 2025)

What was measured:
[1] = target: CD3W220.001; experiment: SPR, CD3 antigen CD3W220.001
[2] = target: T1, BCMA (BCMW37.DB.001) (UniProt Q02223 1-54, limits assumed); experiment: SPR, BCMA antigen BCMW37.DB.001
T1 construct: The SPR antigen itself is named only by its batch label
T1 sequence (looked up): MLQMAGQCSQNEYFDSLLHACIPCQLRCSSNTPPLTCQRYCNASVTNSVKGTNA

[3] = target: T2, BCMA on H929-Fluc-GFP cells (UniProt Q02223 1-184); experiment: cell-based or functional assay
T2 sequence (looked up): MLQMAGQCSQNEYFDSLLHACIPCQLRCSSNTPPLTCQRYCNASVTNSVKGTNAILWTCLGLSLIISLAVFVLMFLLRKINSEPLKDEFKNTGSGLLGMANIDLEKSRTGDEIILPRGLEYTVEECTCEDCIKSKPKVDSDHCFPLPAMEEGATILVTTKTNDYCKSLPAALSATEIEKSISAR

[4] = target: CD3 on human donor Pan T cells (human); experiment: cell-based or functional assay
Sequence of CD3 on human donor Pan T cells (human) (chain, as listed by the source): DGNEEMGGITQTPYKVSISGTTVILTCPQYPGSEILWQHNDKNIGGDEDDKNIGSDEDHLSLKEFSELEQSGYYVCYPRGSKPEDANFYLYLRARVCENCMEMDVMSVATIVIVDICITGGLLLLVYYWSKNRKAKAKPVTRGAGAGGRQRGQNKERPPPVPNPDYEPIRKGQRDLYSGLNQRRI

[5] = target: T3, Human CD3E-CD3D Heterodimer Protein (Acro Biosystems) (human, UniProt P07766 23-126; P04234 22-105); experiment: BLI (Octet), bispecific on anti-human Fc sensor, CD3 in solution, 2:1 heterogeneous ligand model, kdis2
T3 construct: also called recombinant CD3 antigen (human CD3 epsilon and CD3 delta heterodimer protein, Acro Biosystems); Recombinant CD3E/D heterodimer protein
T3 sequence (P07766 23-126 limits assumed, chain 1 of 2): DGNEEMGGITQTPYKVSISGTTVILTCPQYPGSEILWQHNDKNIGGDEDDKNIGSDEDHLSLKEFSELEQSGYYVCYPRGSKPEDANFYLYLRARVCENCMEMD
T3 sequence (P04234 22-105 limits assumed, chain 2 of 2): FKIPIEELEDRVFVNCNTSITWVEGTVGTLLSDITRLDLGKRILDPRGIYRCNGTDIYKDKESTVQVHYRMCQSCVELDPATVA
Procedure: (§1) To evaluate CD3 binding, anti-human IgG Fc (AHC) capture biosensors (Sartorius) were loaded with 3 ug/mL bispecific sample of interest in PBS. After loading sensor tips were washed in 1×DPBS+0.02% Tween 20+1 mg/mL Bovine Serum Albumin (BSA) for blocking. […] Association was monitored for 1800 s and dissociation for 900 s, respectively. All measurements were performed at 30° C. with agitation at 1,200 rpm. Sensorgrams were referenced for buffer effects and then analyzed using the FORTEBIO Data Analysis HT Software (V. 12.0.1.55). Kinetic responses were baseline subtracted, aligned and globally fit using a 1:1 fitting model or 2:1 heterogeneous ligand binding model to obtain values for association (Kon), dissociation (Koff) rate constants and the equilibrium dissociation constants (KD).
(§2) Recombinant CD3E/D heterodimer protein was used to assess binding of the scFv/spFv anti-CD3 arms.

[6] = target: T3, Human CD3E-CD3D Heterodimer Protein …; experiment: BLI (Octet), bispecific on anti-human Fc sensor, CD3 in solution, 2:1 heterogeneous ligand model, ka
Procedure: as §1, §2

[7] = target: T3, Human CD3E-CD3D Heterodimer Protein …; experiment: BLI (Octet), bispecific on anti-human Fc sensor, CD3 in solution, 2:1 heterogeneous ligand model, KD1
Procedure: as §1, §2

[8] = target: T3, Human CD3E-CD3D Heterodimer Protein …; experiment: BLI (Octet), bispecific on anti-human Fc sensor, CD3 in solution, 2:1 heterogeneous ligand model, kdis
Procedure: as §1, §2

[9] = target: T4, biotinylated-BCMA protein (UniProt Q02223 1-54, limits assumed, biotinylated (site not stated)); experiment: ELISA, chemiluminescence: biotinylated recombinant BCMA on streptavidin plates, detection with goat anti-human IgG F(ab')2 HRP
T4 construct: also called recombinant BCMA antigen; recombinant biotinylated BCMA
T4 sequence (looked up): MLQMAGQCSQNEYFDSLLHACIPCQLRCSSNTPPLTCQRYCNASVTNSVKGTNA

[10] = target: T3, Human CD3E-CD3D Heterodimer Protein …; experiment: BLI (Octet), bispecific on anti-human Fc sensor, CD3 in solution, 2:1 heterogeneous ligand model, KD2
Procedure: as §1, §2

[11] = target: T3, Human CD3E-CD3D Heterodimer Protein …; experiment: BLI (Octet), bispecific on anti-human Fc sensor, CD3 in solution, 2:1 heterogeneous ligand model, ka2
Procedure: as §1, §2

[12] = target: T4, biotinylated-BCMA protein; experiment: BLI (Octet), biotinylated BCMA on streptavidin sensor, bispecific in solution, 1:1 model
Procedure: Binding of the Cris7b scFv and stapled spFv bispecific molecules to recombinant CD3 antigen (human CD3 epsilon and CD3 delta heterodimer protein, Acro Biosystems) and recombinant BCMA antigen were measured by biolayer interferometry (BLI) using an OCTET HTX instrument (Sartorius, formerly ForteBio). To evaluate BCMA binding, Streptavidin (SA) capture sensors (Sartorius) were loaded with biotinylated-BCMA protein to ˜1 nm signal in PBS. […] Association and dissociation times were 900 s, respectively. […] All measurements were performed at 30° C. with agitation at 1,200 rpm. Sensorgrams were referenced for buffer effects and then analyzed using the ForteBio Data Analysis HT Software (V. 12.0.1.55). Kinetic responses were baseline subtracted, aligned and globally fit using a 1:1 fitting model or 2:1 heterogeneous ligand binding model to obtain values for association (Kon), dissociation (Koff) rate constants and the equilibrium dissociation constants (KD).

B1: BCMB1049 (bispecific antibody, human IgG1, kappa, L234A L235A)
light: DIQMTQSPSSVSASVGDRVTITCKASQNVGTAVAWYQQKPGQSPKLLIYSASNRYTGVPSRFSGSGSGTDFTLTISSLQPEDFATYFCQQYGSSPWTFGGGTKVEIKRTVAAPSVFIFPPSDEQLKSGTASVVCLLNNFYPREAKVQWKVDNALQSGNSQESVTEQDSKDSTYSLSSTLTLSKADYEKHKVYACEVTHQGLSSPVTKSFNRGEC
heavy: QVQLVQSGAEVKKPGASVKVSCKASGYTFTNNVMHWVRQAPGQGLEWMGYILPYNDGTKYNQKFQGRVTLTSDKSASTAYMELSSLRSEDTAVYYCARYDYDGYFDYWGQGTTVTVSSASTKGPSVFPLAPSSKSTSGGTAALGCLVKDYFPEPVTVSWNSGALTSGVHTFPAVLQSSGLYSLSSVVTVPSSSLGTQTYICNVNHKPSNTKVDKKVEPKSCDKTHTCPPCPAPEAAGGPSVFLFPPKPKDTLMISRTPEVTCVVVSVSHEDPEVKFNWYVDGVEVHNAKTKPREEQYNSTYRVVSVLTVLHQDWLNGKEYKCKVSNKALPAPIEKTISKAKGQPREPQVYTLPPSREEMTKNQVSLSCAVKGFYPSDIAVEWESNGQPENNYKTTPPVLDSDGSFFLVSKLTVDKSRWQQGNVFSCSVMHEALHNRFTQKSLSLSPGK
chain: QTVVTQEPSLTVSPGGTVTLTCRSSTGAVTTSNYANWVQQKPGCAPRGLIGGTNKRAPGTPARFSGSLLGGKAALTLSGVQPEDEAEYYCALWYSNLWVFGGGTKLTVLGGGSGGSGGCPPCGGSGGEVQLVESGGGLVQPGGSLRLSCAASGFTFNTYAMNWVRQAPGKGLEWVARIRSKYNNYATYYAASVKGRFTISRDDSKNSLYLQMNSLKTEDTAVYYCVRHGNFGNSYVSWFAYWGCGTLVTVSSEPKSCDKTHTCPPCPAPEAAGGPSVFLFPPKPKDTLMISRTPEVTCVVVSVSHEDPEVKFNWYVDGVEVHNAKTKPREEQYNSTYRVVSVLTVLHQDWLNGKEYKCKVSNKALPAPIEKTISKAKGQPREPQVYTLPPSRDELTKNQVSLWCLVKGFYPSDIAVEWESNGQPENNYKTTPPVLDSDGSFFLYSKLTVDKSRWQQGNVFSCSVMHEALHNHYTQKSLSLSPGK
notes: Humanized anti-BCMA Fab × stapled anti-CD3 (CD3B219) scFv-Fc, knob-in-hole Fc; also called BCMB1049.001; BCMB749h × CD3B219 spFv
[1]
  Kd: 23.6 nM
  koff: 0.00205 s⁻¹
  kon: 86900 M⁻¹ s⁻¹
[2]
  Kd: 1.59 nM
  koff: 0.0219 s⁻¹
  kon: 1.38e+07 M⁻¹ s⁻¹
[3]
  Bottom of fit, % Cytolysis: 16.5%
  EC50 (nM), % Cytolysis: ~0.0348 nM
  Top of fit (Cmax), % Cytolysis: 92.7%
[4]
  Bottom of fit, CD4/CD25+ T cell activation: 8.58
  Bottom of fit, CD8/CD25+ T cell activation: 1.65
  EC50 (nM), CD4/CD25+ T cell activation: 0.0409 nM
  EC50 (nM), CD8/CD25+ T cell activation: 0.0744 nM
  Top of fit (Cmax), CD4/CD25+ T cell activation: 86.8
  Top of fit (Cmax), CD8/CD25+ T cell activation: 77

B2: BCMB1051 (bispecific antibody, human IgG1, kappa, L234A L235A)
light: DIVMTQSQKFMSTTVGDRVSITCKASQNVGTAVAWYQQKPGQSPKLLIYSASNRYTGVPDRFTGTGSGTDFTLTIINVQSEDLADYFCQQYGSSPWTFGGGTKLEIKRTVAAPSVFIFPPSDEQLKSGTASVVCLLNNFYPREAKVQWKVDNALQSGNSQESVTEQDSKDSTYSLSSTLTLSKADYEKHKVYACEVTHQGLSSPVTKSFNRGEC
heavy: QVQLQQSGAELVKPGASVKLSCKASGYTFTNNVMHWVRQKPGQGLEWIGYILPYNDGTKYNEKFKGKATLTSDKSSSTAYMELSSLTSEDSAVYYCARYDYDGYFDYWGQGTTLTVSSASTKGPSVFPLAPSSKSTSGGTAALGCLVKDYFPEPVTVSWNSGALTSGVHTFPAVLQSSGLYSLSSVVTVPSSSLGTQTYICNVNHKPSNTKVDKKVEPKSCDKTHTCPPCPAPEAAGGPSVFLFPPKPKDTLMISRTPEVTCVVVSVSHEDPEVKFNWYVDGVEVHNAKTKPREEQYNSTYRVVSVLTVLHQDWLNGKEYKCKVSNKALPAPIEKTISKAKGQPREPQVYTLPPSREEMTKNQVSLSCAVKGFYPSDIAVEWESNGQPENNYKTTPPVLDSDGSFFLVSKLTVDKSRWQQGNVFSCSVMHEALHNRFTQKSLSLSPGK
chain: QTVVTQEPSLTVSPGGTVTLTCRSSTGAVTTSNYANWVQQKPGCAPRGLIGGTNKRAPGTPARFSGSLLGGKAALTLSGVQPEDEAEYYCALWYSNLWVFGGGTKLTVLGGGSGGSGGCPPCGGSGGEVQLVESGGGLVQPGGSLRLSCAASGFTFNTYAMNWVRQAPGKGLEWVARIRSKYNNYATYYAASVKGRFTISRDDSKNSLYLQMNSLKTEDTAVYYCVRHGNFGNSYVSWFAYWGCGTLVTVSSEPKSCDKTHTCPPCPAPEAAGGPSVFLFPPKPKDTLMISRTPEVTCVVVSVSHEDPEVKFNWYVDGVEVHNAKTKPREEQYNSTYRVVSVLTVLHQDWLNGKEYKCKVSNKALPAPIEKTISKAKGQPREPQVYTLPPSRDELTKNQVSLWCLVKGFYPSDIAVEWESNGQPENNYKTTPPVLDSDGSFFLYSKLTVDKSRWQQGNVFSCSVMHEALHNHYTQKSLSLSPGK
notes: Murine anti-BCMA Fab × stapled anti-CD3 (CD3B219) scFv-Fc, knob-in-hole Fc; also called BCMB1051.001; BCMB749 × CD3B219 spfv
[1]
  Kd: 21.5 nM
  koff: 0.00171 s⁻¹
  kon: 79500 M⁻¹ s⁻¹
[2]
  Kd: 2.47 nM
  koff: 0.0413 s⁻¹
  kon: 1.67e+07 M⁻¹ s⁻¹
[3]
  Bottom of fit, % Cytolysis: 16.7%
  EC50 (nM), % Cytolysis: 0.0594 nM
  Top of fit (Cmax), % Cytolysis: 92.4%
[4]
  Bottom of fit, CD4/CD25+ T cell activation: 8.67
  Bottom of fit, CD8/CD25+ T cell activation: 1.67
  EC50 (nM), CD4/CD25+ T cell activation: 0.087 nM
  EC50 (nM), CD8/CD25+ T cell activation: 0.144 nM
  Top of fit (Cmax), CD4/CD25+ T cell activation: 84.9
  Top of fit (Cmax), CD8/CD25+ T cell activation: 74

B3: TD01B48 (bispecific antibody)
light: DIVMTQSQKFMSTTVGDRVSITCKASQNVGTAVAWYQQKPGQSPKLLIYSASNRYTGVPDRFTGTGSGTDFTLTIINVQSEDLADYFCQQYGSSPWTFGGGTKLEIKRTVAAPSVFIFPPSDEQLKSGTASVVCLLNNFYPREAKVQWKVDNALQSGNSQESVTEQDSKDSTYSLSSTLTLSKADYEKHKVYACEVTHQGLSSPVTKSFNRGEC
heavy: QVQLQQSGAELVKPGASVKLSCKASGYTFTNNVMHWVRQKPGQGLEWIGYILPYNDGTKYNEKFKGKATLTSDKSSSTAYMELSSLTSEDSAVYYCARYDYDGYFDYWGQGTTLTVSSASTKGPSVFPLAPSSKSTSGGTAALGCLVKDYFPEPVTVSWNSGALTSGVHTFPAVLQSSGLYSLSSVVTVPSSSLGTQTYICNVNHKPSNTKVDKKVEPKSCDKTHTCPPCPAPEAAGGPSVFLFPPKPKDTLMISRTPEVTCVVVSVSHEDPEVKFNWYVDGVEVHNAKTKPREEQYNSTYRVVSVLTVLHQDWLNGKEYKCKVSNKALPAPIEKTISKAKGQPREPQVYTLPPSREEMTKNQVSLSCAVKGFYPSDIAVEWESNGQPENNYKTTPPVLDSDGSFFLVSKLTVDKSRWQQGNVFSCSVMHEALHNRFTQKSLSLSPGK
scFv-Fc: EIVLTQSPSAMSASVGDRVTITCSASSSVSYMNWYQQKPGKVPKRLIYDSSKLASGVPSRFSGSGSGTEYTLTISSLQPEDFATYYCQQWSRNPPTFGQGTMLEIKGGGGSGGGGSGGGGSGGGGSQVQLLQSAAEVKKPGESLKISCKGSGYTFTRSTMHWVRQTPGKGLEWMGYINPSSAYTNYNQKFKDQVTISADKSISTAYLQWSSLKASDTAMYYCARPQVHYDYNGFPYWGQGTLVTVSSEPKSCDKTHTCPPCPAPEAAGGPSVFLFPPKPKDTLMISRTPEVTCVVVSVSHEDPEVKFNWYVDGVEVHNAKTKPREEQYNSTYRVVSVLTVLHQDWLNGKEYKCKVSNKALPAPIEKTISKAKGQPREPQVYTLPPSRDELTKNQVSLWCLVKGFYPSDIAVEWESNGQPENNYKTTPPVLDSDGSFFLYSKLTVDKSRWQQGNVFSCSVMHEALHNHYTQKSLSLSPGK
notes: also called BCMB749 × Cris7b scFv G4S; Cris7 scFv B48 G4S
[5]
  koff: 7.45e-05 s⁻¹
[6]
  kon: 147000 M⁻¹ s⁻¹
[7]
  Kd: 0.238 nM
[8]
  koff: 3.49e-05 s⁻¹
[9]
  EC50 (read off the curve): ~2 nM
[10]
  Kd: 4.62 nM
[11]
  kon: 16100 M⁻¹ s⁻¹

B4: BCMB1056 (bispecific antibody, human IgG1, kappa, L234A L235A)
light: DIVMTQSQKFMSTTVGDRVSITCKASQNVGTAVAWYQQKPGQSPKLLIYSASNRYTGVPDRFTGTGSGTDFTLTIINVQSEDLADYFCQQYGSSPWTFGGGTKLEIKRTVAAPSVFIFPPSDEQLKSGTASVVCLLNNFYPREAKVQWKVDNALQSGNSQESVTEQDSKDSTYSLSSTLTLSKADYEKHKVYACEVTHQGLSSPVTKSFNRGEC
heavy: QVQLQQSGAELVKPGASVKLSCKASGYTFTNNVMHWVRQKPGQGLEWIGYILPYNDGTKYNEKFKGKATLTSDKSSSTAYMELSSLTSEDSAVYYCARYDYDGYFDYWGQGTTLTVSSASTKGPSVFPLAPSSKSTSGGTAALGCLVKDYFPEPVTVSWNSGALTSGVHTFPAVLQSSGLYSLSSVVTVPSSSLGTQTYICNVNHKPSNTKVDKKVEPKSCDKTHTCPPCPAPEAAGGPSVFLFPPKPKDTLMISRTPEVTCVVVSVSHEDPEVKFNWYVDGVEVHNAKTKPREEQYNSTYRVVSVLTVLHQDWLNGKEYKCKVSNKALPAPIEKTISKAKGQPREPQVYTLPPSREEMTKNQVSLSCAVKGFYPSDIAVEWESNGQPENNYKTTPPVLDSDGSFFLVSKLTVDKSRWQQGNVFSCSVMHEALHNRFTQKSLSLSPGK
chain: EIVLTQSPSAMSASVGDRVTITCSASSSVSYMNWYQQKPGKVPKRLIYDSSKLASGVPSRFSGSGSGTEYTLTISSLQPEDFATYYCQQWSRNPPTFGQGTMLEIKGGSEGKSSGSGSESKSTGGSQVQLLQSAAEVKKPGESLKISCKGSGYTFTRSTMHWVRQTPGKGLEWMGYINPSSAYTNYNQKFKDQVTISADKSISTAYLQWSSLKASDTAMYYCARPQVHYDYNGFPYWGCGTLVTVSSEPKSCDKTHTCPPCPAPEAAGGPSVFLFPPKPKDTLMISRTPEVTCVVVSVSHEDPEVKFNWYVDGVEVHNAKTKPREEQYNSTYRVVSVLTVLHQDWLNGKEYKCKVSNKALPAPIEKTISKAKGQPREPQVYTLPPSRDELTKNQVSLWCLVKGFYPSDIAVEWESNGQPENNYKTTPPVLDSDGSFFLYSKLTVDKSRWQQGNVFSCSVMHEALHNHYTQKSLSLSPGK
notes: Murine anti-BCMA Fab × anti-CD3 scFv-Fc, knob-in-hole Fc; also called BCMB1056.001; BCMB749 × Cris7b scFv
[1]
  Kd: 951 nM
  koff: 0.237 s⁻¹
  kon: 249000 M⁻¹ s⁻¹
[2]
  Kd: 2.61 nM
  koff: 0.0389 s⁻¹
  kon: 1.49e+07 M⁻¹ s⁻¹
[3]
  Bottom of fit, % Cytolysis: 17.2%
  EC50 (nM), % Cytolysis: 0.0758 nM
  Top of fit (Cmax), % Cytolysis: 92.7%
[4]
  Bottom of fit, CD4/CD25+ T cell activation: 8.29
  Bottom of fit, CD8/CD25+ T cell activation: 1.42
  EC50 (nM), CD4/CD25+ T cell activation: 0.105 nM
  EC50 (nM), CD8/CD25+ T cell activation: 0.15 nM
  Top of fit (Cmax), CD4/CD25+ T cell activation: 82.7
  Top of fit (Cmax), CD8/CD25+ T cell activation: 75.3

B5: TD01B46 (bispecific antibody, human IgG1, kappa, L234A L235A)
light: DIVMTQSQKFMSTTVGDRVSITCKASQNVGTAVAWYQQKPGQSPKLLIYSASNRYTGVPDRFTGTGSGTDFTLTIINVQSEDLADYFCQQYGSSPWTFGGGTKLEIKRTVAAPSVFIFPPSDEQLKSGTASVVCLLNNFYPREAKVQWKVDNALQSGNSQESVTEQDSKDSTYSLSSTLTLSKADYEKHKVYACEVTHQGLSSPVTKSFNRGEC
heavy: QVQLQQSGAELVKPGASVKLSCKASGYTFTNNVMHWVRQKPGQGLEWIGYILPYNDGTKYNEKFKGKATLTSDKSSSTAYMELSSLTSEDSAVYYCARYDYDGYFDYWGQGTTLTVSSASTKGPSVFPLAPSSKSTSGGTAALGCLVKDYFPEPVTVSWNSGALTSGVHTFPAVLQSSGLYSLSSVVTVPSSSLGTQTYICNVNHKPSNTKVDKKVEPKSCDKTHTCPPCPAPEAAGGPSVFLFPPKPKDTLMISRTPEVTCVVVSVSHEDPEVKFNWYVDGVEVHNAKTKPREEQYNSTYRVVSVLTVLHQDWLNGKEYKCKVSNKALPAPIEKTISKAKGQPREPQVYTLPPSREEMTKNQVSLSCAVKGFYPSDIAVEWESNGQPENNYKTTPPVLDSDGSFFLVSKLTVDKSRWQQGNVFSCSVMHEALHNRFTQKSLSLSPGK
chain: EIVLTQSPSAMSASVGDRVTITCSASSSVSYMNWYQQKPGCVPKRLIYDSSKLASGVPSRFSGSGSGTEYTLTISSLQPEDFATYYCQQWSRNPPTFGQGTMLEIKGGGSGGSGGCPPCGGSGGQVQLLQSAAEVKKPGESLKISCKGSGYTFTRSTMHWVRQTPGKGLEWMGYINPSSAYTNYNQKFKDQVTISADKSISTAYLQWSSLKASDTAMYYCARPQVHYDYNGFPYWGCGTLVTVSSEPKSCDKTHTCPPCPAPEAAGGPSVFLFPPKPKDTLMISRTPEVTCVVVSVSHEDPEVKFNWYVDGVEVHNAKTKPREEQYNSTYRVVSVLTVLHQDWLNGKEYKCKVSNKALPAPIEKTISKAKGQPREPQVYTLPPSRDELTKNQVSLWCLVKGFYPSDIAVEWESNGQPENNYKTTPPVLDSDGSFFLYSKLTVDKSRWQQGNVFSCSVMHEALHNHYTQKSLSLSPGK
notes: Stapled bispecific from the large-scale batch; also called BCMB749 × Cris7b spFv
[5]
  koff: 4.65e-05 s⁻¹
[6]
  kon: 158000 M⁻¹ s⁻¹
[7]
  Kd: 0.0222 nM
[8]
  koff: 3.49e-06 s⁻¹
[9]
  EC50 (read off the curve): ~2 nM
[10]
  Kd: 2.99 nM
[11]
  kon: 15600 M⁻¹ s⁻¹
[12]
  Kd: 5.43 nM
  koff: 0.00142 s⁻¹
  kon: 261000 M⁻¹ s⁻¹
